Laboratory results as given in PMC10194873.

Experiments:
[1] = biological target: CagI N-terminal domain (CagI^N) (Helicobacter pylori strain 26695); assay: SEC-MALS
[2] = biological target: CagI N-terminal domain (CagI^N) (Helicobacter pylori strain 26695); assay: SEC-SAXS
[3] = biological target: CagI (untagged, residues 21 to 381) (Helicobacter pylori strain 26695); assay: SEC-MALS
[4] = biological target: CagI with a C-terminal strep-tag (residues 21-381) (Helicobacter pylori strain 26695); assay: SEC-MALS

CagI N-terminal domain (CagI^N) (domain or fragment)
stoichiometry N [1]: 2
stoichiometry N [2]: 2

CagI (untagged, residues 21 to 381) (natural protein)
stoichiometry N [3]: 2

CagI with a C-terminal strep-tag (residues 21-381) (natural protein)
stoichiometry N [4]: 2
